What was measured:
HeLa Kyoto [1] = assay: solubility in G1/S (NP-40 vs SDS abundance) (log2 ratio); higher = more soluble; settings: cell cycle stage: G1/S
HeLa Kyoto [2] = assay: melting temperature (median over replicates), in situ; higher = more thermally stable
HeLa Kyoto [3] = assay: solubility change mitosis vs G1/S (difference of NP-40 vs SDS log2 ratios) (log2 ratio difference); higher = more soluble in mitosis
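Wherever melting temperature (median over replicates), in situ is given: HeLa Kyoto cells synchronized by double thymidine or nocodazole block, proteins quantified by TMT10plex mass spectrometry, three independent biological replicates.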
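Wherever solubility change mitosis vs G1/S (difference of NP-40 vs SDS log2 ratios) is given: synchronized HeLa Kyoto cells (double thymidine block for G1/S, nocodazole release for mitosis), protein amounts in NP-40 versus SDS lysates quantified by mass spectrometry, three biological replicates.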
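Wherever solubility in G1/S (NP-40 vs SDS abundance) is given: HeLa Kyoto cells arrested at G1/S by double thymidine block, proteins quantified by TMT10plex mass spectrometry in mild NP-40 versus SDS extracts, three biological replicates.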

WWC2, sequence (chain, as listed by the source): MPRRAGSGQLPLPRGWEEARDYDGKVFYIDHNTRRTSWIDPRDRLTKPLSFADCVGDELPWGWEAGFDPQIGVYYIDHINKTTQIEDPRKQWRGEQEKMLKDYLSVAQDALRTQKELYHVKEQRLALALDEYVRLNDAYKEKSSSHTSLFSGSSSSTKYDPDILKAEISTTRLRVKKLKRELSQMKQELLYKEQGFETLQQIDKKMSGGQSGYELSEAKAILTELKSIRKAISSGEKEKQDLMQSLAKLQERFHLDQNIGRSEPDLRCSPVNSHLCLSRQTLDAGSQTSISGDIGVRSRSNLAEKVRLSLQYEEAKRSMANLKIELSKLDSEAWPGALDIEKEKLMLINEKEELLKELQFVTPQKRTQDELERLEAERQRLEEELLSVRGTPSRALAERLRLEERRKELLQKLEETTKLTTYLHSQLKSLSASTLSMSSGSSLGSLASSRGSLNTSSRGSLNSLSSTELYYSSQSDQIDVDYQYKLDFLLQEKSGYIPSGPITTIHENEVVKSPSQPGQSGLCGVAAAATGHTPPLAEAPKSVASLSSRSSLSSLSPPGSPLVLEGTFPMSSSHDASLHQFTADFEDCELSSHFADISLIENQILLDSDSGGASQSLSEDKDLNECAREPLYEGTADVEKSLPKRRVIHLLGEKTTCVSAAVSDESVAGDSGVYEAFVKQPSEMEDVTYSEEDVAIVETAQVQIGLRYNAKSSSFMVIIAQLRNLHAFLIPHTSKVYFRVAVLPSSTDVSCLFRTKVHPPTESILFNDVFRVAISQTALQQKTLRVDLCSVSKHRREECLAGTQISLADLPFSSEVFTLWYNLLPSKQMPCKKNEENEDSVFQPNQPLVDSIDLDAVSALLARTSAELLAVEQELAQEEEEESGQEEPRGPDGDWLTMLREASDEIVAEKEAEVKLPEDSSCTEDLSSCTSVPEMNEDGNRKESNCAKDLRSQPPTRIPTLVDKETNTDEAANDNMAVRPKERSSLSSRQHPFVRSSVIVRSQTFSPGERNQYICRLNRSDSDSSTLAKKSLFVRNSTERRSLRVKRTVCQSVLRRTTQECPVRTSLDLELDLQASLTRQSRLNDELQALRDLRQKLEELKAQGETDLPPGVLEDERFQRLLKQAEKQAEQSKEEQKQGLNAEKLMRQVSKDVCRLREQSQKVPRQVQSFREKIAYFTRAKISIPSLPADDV
PLSCR3, sequence (chain, as listed by the source): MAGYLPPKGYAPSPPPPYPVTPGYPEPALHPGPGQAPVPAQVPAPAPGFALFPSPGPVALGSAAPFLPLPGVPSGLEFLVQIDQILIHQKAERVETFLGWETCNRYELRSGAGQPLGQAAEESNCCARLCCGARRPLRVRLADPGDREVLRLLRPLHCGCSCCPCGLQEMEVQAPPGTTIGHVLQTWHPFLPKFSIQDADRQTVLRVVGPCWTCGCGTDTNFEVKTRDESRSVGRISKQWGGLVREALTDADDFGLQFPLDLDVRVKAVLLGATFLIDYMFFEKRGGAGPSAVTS

MGWSQDLFRALWRSLSREVKEHVGTDQFGNKYYYIPQYKNWRGQTIREKRIVEAANKKEVDYEAGDIPTEWEAWIRRTRKTPPTMEEILKNEKHREEIKIKSQDFYEKEKLLSKETSEELLPPPVQTQIKGHASAPYFGKEEPSVAPSSTGKTFQPGSWMPRDGKSHNQ [NDUFAF2]
solubility in G1/S (log2) (HeLa Kyoto [1]): 0.329
melting temperature (HeLa Kyoto [2]; cell cycle stage: G1/S): 55.5 °C
melting temperature (HeLa Kyoto [2]; cell cycle stage: mitosis): 52.2 °C
solubility change mitosis (log2) (HeLa Kyoto [3]): 0.329

PLSCR3
solubility in G1/S (log2) (HeLa Kyoto [1]): 0.116
melting temperature (HeLa Kyoto [2]; cell cycle stage: mitosis): 56.6 °C
solubility change mitosis (log2) (HeLa Kyoto [3]): -0.119

WWC2
solubility in G1/S (log2) (HeLa Kyoto [1]): -0.102
melting temperature (HeLa Kyoto [2]; cell cycle stage: G1/S): 51.1 °C
melting temperature (HeLa Kyoto [2]; cell cycle stage: mitosis): 49.9 °C
solubility change mitosis (log2) (HeLa Kyoto [3]): -0.0226

MADDFGFFSSSESGAPEAAEEDPAAAFLAQQESEIAGIENDEGFGAPAGSHAAPAQPGPTSGAGSEDMGTTVNGDVFQEANGPADGYAAIAQADRLTQEPESIRKWREEQRKRLQELDAASKVTEQEWREKAKKDLEEWNQRQSEQVEKNKINNRIADKAFYQQPDADIIGYVASEEAFVKESKEETPGTEWEKVAQLCDFNPKSSKQCKDVSRLRSVLMSLKQTPLSR [CLTB]
solubility in G1/S (log2) (HeLa Kyoto [1]): 0.159
melting temperature (HeLa Kyoto [2]; cell cycle stage: G1/S): 56.3 °C
melting temperature (HeLa Kyoto [2]; cell cycle stage: mitosis): 53.3 °C
solubility change mitosis (log2) (HeLa Kyoto [3]): 0.651

PIEZO2
solubility in G1/S (log2) (HeLa Kyoto [1]): -0.112
melting temperature (HeLa Kyoto [2]; cell cycle stage: G1/S): 55.7 °C
melting temperature (HeLa Kyoto [2]; cell cycle stage: mitosis): 54.8 °C
solubility change mitosis (log2) (HeLa Kyoto [3]): -0.0931

MALLFLLPLVMQGVSRAEMGTADLGPSSVPTPTNVTIESYNMNPIVYWEYQIMPQVPVFTVEVKNYGVKNSEWIDACINISHHYCNISDHVGDPSNSLWVRVKARVGQKESAYAKSEEFAVCRDGKIGPPKLDIRKEEKQIMIDIFHPSVFVNGDEQEVDYDPETTCYIRVYNVYVRMNGSEIQYKILTQKEDDCDEIQCQLAIPVSSLNSQYCVSAEGVLHVWGVTTEKSKEVCITIFNSSIKGSLWIPVVAALLLFLVLSLVFICFYIKKINPLKEKSIILPKSLISVVRSATLETKPESKYVSLITSYQPFSLEKEVVCEEPLSPATVPGMHTEDNPGKVEHTEELSSITEVVTTEENIPDVVPGSHLTPIERESSSPLSSNQSEPGSIALNSYHSRNCSESDHSRNGFDTDSSCLESHSSLSDSEFPPNNKGEIKTEGQELITVIKAPTSFGYDKPHVLVDLLVDDSGKESLIGYRPTEDSKEFS [IFNGR1]
solubility in G1/S (log2) (HeLa Kyoto [1]): 0.103
melting temperature (HeLa Kyoto [2]; cell cycle stage: mitosis): 55.3 °C
solubility change mitosis (log2) (HeLa Kyoto [3]): -0.126

MSGIKRTIKETDPDYEDVSVALPNKRHKAIENSARDAAVQKIETIIKEQFALEMKNKEHEIEVIDQRLIEARRMMDKLRACIVANYYASAGLLKVSEGSKTCDTMVFNHPAIKKFLESPSRSSSPANQRAETPSANHSESDSLSQHNDFLSDKDNNSNMDIEERLSNNMEQRPSRNTGRDTSRITGSHKTEQRNADLTDETSRLFVKKTIVVGNVSKYIPPDKREENDQSTHKWMVYVRGSRREPSINHFVKKVWFFLHPSYKPNDLVEVREPPFHLTRRGWGEFPVRVQVHFKDSQNKRIDIIHNLKLDRTYTGLQTLGAETVVDVELHRHSLGEDCIYPQSSESDISDAPPSLPLTIPAPVKASSPIKQSHEPVPDTSVEKGFPASTEAERHTPFYALPSSLERTPTKMTTSQKVTFCSHGNSAFQPIASSCKIVPQSQVPNPESPGKSFQPITMSCKIVSGSPISTPSPSPLPRTPTSTPVHVKQGTAGSVINNPYVIMDKQPGQVIGATTPSTGSPTNKISTASQVSQGTGSPVPKIHGSSFVTSTVKQEDSLFASMPPLCPIGSHPKVQSPKPITGGLGAFTKVIIKQEPGEAPHVPATGAASQSPLPQYVTVKGGHMIAVSPQKQVITPGEGIAQSAKVQPSKVVGVPVGSALPSTVKQAVAISGGQILVAKASSSVSKAVGPKQVVTQGVAKAIVSGGGGTIVAQPVQTLTKAQVTAAGPQKSGSQGSVMATLQLPATNLANLANLPPGTKLYLTTNSKNPSGKGKLLLIPQGAILRATNNANLQSGSAASGGSGAGGGGGGGGGGGSGSGGGGSTGGGGGTAGGGTQSTAGPGGISQHLTYTSYILKQTPQGTFLVGQPSPQTSGKQLTTGSVVQGTLGVSTSSAQGQQTLKVISGQKTTLFTQAAHGGQASLMKISDSTLKTVPATSQLSKPGTTMLRVAGGVITTATSPAVALSANGPAQQSEGMAPVSSSTVSSVTKTSGQQQVCVSQATVGTCKAATPTVVSATSLVPTPNPISGKATVSGLLKIHSSQSSPQQAVLTIPSQLKPLSVNTSGGVQTILMPVNKVVQSFSTSKPPAILPVAAPTPVVPSSAPAAVAKVKTEPETPGPSCLSQEGQTAVKTEESSELGNYVIKIDHLETIQQLLTAVVKKIPLITAKSEDASCFSAKSVEQYYGWNIGKRRAAEWQRAMTMRKVLQEILEKNPRFHHLTPLKTKHIAHWCRCHGYTPPDPESLRNDGDSIEDVLTQIDSEPECPSSFSSADNLCRKLEDLQQFQKREPENEEEVDILSLSEPVKINIKKEQEEKQEEVKFYLPPTPGSEFIGDVTQKIGITLQPVALHRNVYASVVEDMILKATEQLVNDILRQALAVGYQTASHNRIPKEITVSNIHQAICNIPFLDFLTNKHMGILNEDQ [YEATS2]
solubility in G1/S (log2) (HeLa Kyoto [1]): -0.495
melting temperature (HeLa Kyoto [2]; cell cycle stage: G1/S): 51.4 °C
melting temperature (HeLa Kyoto [2]; cell cycle stage: mitosis): 49.7 °C
solubility change mitosis (log2) (HeLa Kyoto [3]): 0.161

From the supplement of paper PMC5998384
